{"source": "paper PMC6483157", "about": "“Structure of the human ClC-1 chloride channel” (PLoS Biology, 2019)", "proteins": {"B1": {"name": "human ClC-1 chloride channel (natural protein, UniProt P35523 1-988, looked up)", "chain": "MEQSRSQQRGGEQSWWGSDPQYQYMPFEHCTSYGLPSENGGLQHRLRKDAGPRHNVHPTQIYGHHKEQFSDREQDIGMPKKTGSSSTVDSKDEDHYSKCQDCIHRLGQVVRRKLGEDGIFLVLLGLLMALVSWSMDYVSAKSLQAYKWSYAQMQPSLPLQFLVWVTFPLVLILFSALFCHLISPQAVGSGIPEMKTILRGVVLKEYLTMKAFVAKVVALTAGLGSGIPVGKEGPFVHIASICAAVLSKFMSVFCGVYEQPYYYSDILTVGCAVGVGCCFGTPLGGVLFSIEVTSTYFAVRNYWRGFFAATFSAFVFRVLAVWNKDAVTITALFRTNFRMDFPFDLKELPAFAAIGICCGLLGAVFVYLHRQVMLGVRKHKALSQFLAKHRLLYPGIVTFVIASFTFPPGMGQFMAGELMPREAISTLFDNNTWVKHAGDPESLGQSAVWIHPRVNVVIIIFLFFVMKFWMSIVATTMPIPCGGFMPVFVLGAAFGRLVGEIMAMLFPDGILFDDIIYKILPGGYAVIGAAALTGAVSHTVSTAVICFELTGQIAHILPMMVAVILANMVAQSLQPSLYDSIIQVKKLPYLPDLGWNQLSKYTIFVEDIMVRDVKFVSASYTYGELRTLLQTTTVKTLPLVDSKDSMILLGSVERSELQALLQRHLCPERRLRAAQEMARKLSELPYDGKARLAGEGLPGAPPGRPESFAFVDEDEDEDLSGKSELPPSLALHPSTTAPLSPEEPNGPLPGHKQQPEAPEPAGQRPSIFQSLLHCLLGRARPTKKKTTQDSTDLVDNMSPEEIEAWEQEQLSQPVCFDSCCIDQSPFQLVEQTTLHKTHTLFSLLGLHLAYVTSMGKLRGVLALEELQKAIEGHTKSGVQLRPPLASFRNTTSTRKSTGAPPSSAENWNLPEDRPGATGTGDVIAASPETPVPSPSPEPPLSLAPGKVEGELEELELVESPGLEEELADILQGPSLRSTDEEDEDELIL", "notes": "human ClC-1 chloride channel, full length, from yeast codon-optimized cDNA; followed by a TEV cleavage site, GFP and His10; released from the Ni-beads by TEV protease; The models cover only part of the chain: membrane domain residues 115-589 (loop 254-261 missing) and trimmed CBS domains; The N terminus and helix A are not resolved; source: yeast strain PAP1500 (pEMBLyex4), 15-L bioreactors; …"}}, "biological_target": "the molecule itself", "assay": "cryo-EM structure; single-particle cryo-EM of purified ClC-1 in amphipol PMAL-C8; 20 mM Tris pH 7.5, 100 mM NaCl, 0.2 mM TCEP, no nucleotides or antibodies; also 20 mM BisTris pH 6.2 with 0.3 mM NAD; C2 symmetry applied"}
{"protein": "B1", "values": [{"measurement": "binding result", "result": "binds"}]}
